From patent US20240018502A1 come the findings set out here.

Sequences and labels used below:
B1: MTSP-1 protease domain I41A/Y60gW/N95D/D96F/F97G/F99L/C122S/Q175H/Q192A (enzyme)
chain: VVGGTDADEGEWPWQVSLHALGQGHACGASLISPNWLVSAAHCYIDDRGFRWSDPTQWTAFLGLHDQSQRSAPGVQERRLKRIISHPFFDFGTLDYDIALLELEKPAEYSSMVRPISLPDASHVFPAGKAIWVTGWGHTQYGGTGALILQKGEIRVINQTTCENLLPQHITPRMMCVGFLSGGVDSCAGDSGGPLSSVEADGRIFQAGVVSWGDGCAQRNKPGVYTRLPLFRDWIKENTGV
B2: MTSP-1 protease domain I41S/F97L/F99L/C122S/G151N/Q192G/D217V (enzyme)
chain: VVGGTDADEGEWPWQVSLHALGQGHSCGASLISPNWLVSAAHCYIDDRGFRYSDPTQWTAFLGLHDQSQRSAPGVQERRLKRIISHPFFNDLTLDYDIALLELEKPAEYSSMVRPISLPDASHVFPAGKAIWVTGWGHTQYGGTNALILQKGEIRVINQTTCENLLPQQITPRMMCVGFLSGGVDSCGGDSGGPLSSVEADGRIFQAGVVSWGVGCAQRNKPGVYTRLPLFRDWIKENTGV
B3: MTSP-1 protease domain I41S/F97S/F99L/C122S/G151N/Q175L/Q192A/D217L (enzyme)
chain: VVGGTDADEGEWPWQVSLHALGQGHSCGASLISPNWLVSAAHCYIDDRGFRYSDPTQWTAFLGLHDQSQRSAPGVQERRLKRIISHPFFNDSTLDYDIALLELEKPAEYSSMVRPISLPDASHVFPAGKAIWVTGWGHTQYGGTNALILQKGEIRVINQTTCENLLPQLITPRMMCVGFLSGGVDSCAGDSGGPLSSVEADGRIFQAGVVSWGLGCAQRNKPGVYTRLPLFRDWIKENTGV
B4: MTSP-1 protease domain I41S/F99L/C122S/G151N/Q175M/Q192G/D217V (enzyme)
chain: VVGGTDADEGEWPWQVSLHALGQGHSCGASLISPNWLVSAAHCYIDDRGFRYSDPTQWTAFLGLHDQSQRSAPGVQERRLKRIISHPFFNDFTLDYDIALLELEKPAEYSSMVRPISLPDASHVFPAGKAIWVTGWGHTQYGGTNALILQKGEIRVINQTTCENLLPQMITPRMMCVGFLSGGVDSCGGDSGGPLSSVEADGRIFQAGVVSWGVGCAQRNKPGVYTRLPLFRDWIKENTGV
B5: MTSP-1 protease domain I41A/Y60gW/F99L/C122S/Q175T/Q192A (enzyme)
chain: VVGGTDADEGEWPWQVSLHALGQGHACGASLISPNWLVSAAHCYIDDRGFRWSDPTQWTAFLGLHDQSQRSAPGVQERRLKRIISHPFFNDFTLDYDIALLELEKPAEYSSMVRPISLPDASHVFPAGKAIWVTGWGHTQYGGTGALILQKGEIRVINQTTCENLLPQTITPRMMCVGFLSGGVDSCAGDSGGPLSSVEADGRIFQAGVVSWGDGCAQRNKPGVYTRLPLFRDWIKENTGV
B6: MTSP-1 protease domain I41G/F97R/F99L/C122S/G151N/Q175L/Q192S/D217V (enzyme)
chain: VVGGTDADEGEWPWQVSLHALGQGHGCGASLISPNWLVSAAHCYIDDRGFRYSDPTQWTAFLGLHDQSQRSAPGVQERRLKRIISHPFFNDRTLDYDIALLELEKPAEYSSMVRPISLPDASHVFPAGKAIWVTGWGHTQYGGTNALILQKGEIRVINQTTCENLLPQLITPRMMCVGFLSGGVDSCSGDSGGPLSSVEADGRIFQAGVVSWGVGCAQRNKPGVYTRLPLFRDWIKENTGV
B7: MTSP-1 protease domain A35T/I41S/Y59F/ins97aV/C122S/Y146F/V183A/Q192G/R235H (enzyme)
chain: VVGGTDADEGEWPWQVSLHTLGQGHSCGASLISPNWLVSAAHCFIDDRGFRYSDPTQWTAFLGLHDQSQRSAPGVQERRLKRIISHPFFNDFVTFDYDIALLELEKPAEYSSMVRPISLPDASHVFPAGKAIWVTGWGHTQFGGTGALILQKGEIRVINQTTCENLLPQQITPRMMCAGFLSGGVDSCGGDSGGPLSSVEADGRIFQAGVVSWGDGCAQRNKPGVYTRLPLFHDWIKENTGV
B8: MTSP-1 protease domain Q38M/I41T/D96M/ins97aH/C122S/G151E (enzyme)
chain: VVGGTDADEGEWPWQVSLHALGMGHTCGASLISPNWLVSAAHCYIDDRGFRYSDPTQWTAFLGLHDQSQRSAPGVQERRLKRIISHPFFNMFHTFDYDIALLELEKPAEYSSMVRPISLPDASHVFPAGKAIWVTGWGHTQYGGTEALILQKGEIRVINQTTCENLLPQQITPRMMCVGFLSGGVDSCQGDSGGPLSSVEADGRIFQAGVVSWGDGCAQRNKPGVYTRLPLFRDWIKENTGV
B9: MTSP-1 protease domain I41S/Y59F/F97Y/ins97aV/C122S/Q192G (enzyme)
chain: VVGGTDADEGEWPWQVSLHALGQGHSCGASLISPNWLVSAAHCFIDDRGFRYSDPTQWTAFLGLHDQSQRSAPGVQERRLKRIISHPFFNDYVTFDYDIALLELEKPAEYSSMVRPISLPDASHVFPAGKAIWVTGWGHTQYGGTGALILQKGEIRVINQTTCENLLPQQITPRMMCVGFLSGGVDSCGGDSGGPLSSVEADGRIFQAGVVSWGDGCAQRNKPGVYTRLPLFRDWIKENTGV
B10: MTSP-1 protease domain I41S/D60bY/ins97aV/T98N/C122S/Q192H (enzyme)
chain: VVGGTDADEGEWPWQVSLHALGQGHSCGASLISPNWLVSAAHCYIDYRGFRYSDPTQWTAFLGLHDQSQRSAPGVQERRLKRIISHPFFNDFVNFDYDIALLELEKPAEYSSMVRPISLPDASHVFPAGKAIWVTGWGHTQYGGTGALILQKGEIRVINQTTCENLLPQQITPRMMCVGFLSGGVDSCHGDSGGPLSSVEADGRIFQAGVVSWGDGCAQRNKPGVYTRLPLFRDWIKENTGV
B11: MTSP-1 protease domain I41S/D60bY/ins97aV/A112V/C122S/Q192G/Q209L (enzyme)
chain: VVGGTDADEGEWPWQVSLHALGQGHSCGASLISPNWLVSAAHCYIDYRGFRYSDPTQWTAFLGLHDQSQRSAPGVQERRLKRIISHPFFNDFVTFDYDIALLELEKPVEYSSMVRPISLPDASHVFPAGKAIWVTGWGHTQYGGTGALILQKGEIRVINQTTCENLLPQQITPRMMCVGFLSGGVDSCGGDSGGPLSSVEADGRIFLAGVVSWGDGCAQRNKPGVYTRLPLFRDWIKENTGV
B12: MTSP-1 protease domain I41S/D96K/F97G/ins97aV/T98P/F99L/C122S/Q175H/Q192D (enzyme)
chain: VVGGTDADEGEWPWQVSLHALGQGHSCGASLISPNWLVSAAHCYIDDRGFRYSDPTQWTAFLGLHDQSQRSAPGVQERRLKRIISHPFFNKGVPLDYDIALLELEKPAEYSSMVRPISLPDASHVFPAGKAIWVTGWGHTQYGGTGALILQKGEIRVINQTTCENLLPQHITPRMMCVGFLSGGVDSCDGDSGGPLSSVEADGRIFQAGVVSWGDGCAQRNKPGVYTRLPLFRDWIKENTGV
B13: MTSP-1 protease domain I41S/Y59F/ins97aV/C122S/Q192G/N223D (enzyme)
chain: VVGGTDADEGEWPWQVSLHALGQGHSCGASLISPNWLVSAAHCFIDDRGFRYSDPTQWTAFLGLHDQSQRSAPGVQERRLKRIISHPFFNDFVTFDYDIALLELEKPAEYSSMVRPISLPDASHVFPAGKAIWVTGWGHTQYGGTGALILQKGEIRVINQTTCENLLPQQITPRMMCVGFLSGGVDSCGGDSGGPLSSVEADGRIFQAGVVSWGDGCAQRDKPGVYTRLPLFRDWIKENTGV
B14: MTSP-1 protease domain I41S/D96K/F97G/ins97aV/T98P/F99L/C122S/Q192V (enzyme)
chain: VVGGTDADEGEWPWQVSLHALGQGHSCGASLISPNWLVSAAHCYIDDRGFRYSDPTQWTAFLGLHDQSQRSAPGVQERRLKRIISHPFFNKGVPLDYDIALLELEKPAEYSSMVRPISLPDASHVFPAGKAIWVTGWGHTQYGGTGALILQKGEIRVINQTTCENLLPQQITPRMMCVGFLSGGVDSCVGDSGGPLSSVEADGRIFQAGVVSWGDGCAQRNKPGVYTRLPLFRDWIKENTGV
B15: MTSP-1 protease domain I41S/ins97aV/C122S/N164D/Q192G/R235H (enzyme)
chain: VVGGTDADEGEWPWQVSLHALGQGHSCGASLISPNWLVSAAHCYIDDRGFRYSDPTQWTAFLGLHDQSQRSAPGVQERRLKRIISHPFFNDFVTFDYDIALLELEKPAEYSSMVRPISLPDASHVFPAGKAIWVTGWGHTQYGGTGALILQKGEIRVIDQTTCENLLPQQITPRMMCVGFLSGGVDSCGGDSGGPLSSVEADGRIFQAGVVSWGDGCAQRNKPGVYTRLPLFHDWIKENTGV
B16: MTSP-1 protease domain Q38H/I41T/D96R/ins97aG/C122S/G151S (enzyme)
chain: VVGGTDADEGEWPWQVSLHALGHGHTCGASLISPNWLVSAAHCYIDDRGFRYSDPTQWTAFLGLHDQSQRSAPGVQERRLKRIISHPFFNRFGTFDYDIALLELEKPAEYSSMVRPISLPDASHVFPAGKAIWVTGWGHTQYGGTSALILQKGEIRVINQTTCENLLPQQITPRMMCVGFLSGGVDSCQGDSGGPLSSVEADGRIFQAGVVSWGDGCAQRNKPGVYTRLPLFRDWIKENTGV
B17: MTSP-1 protease domain I41S/Y59F/D60bY/ins97aV/C122S/Q192G (enzyme)
chain: VVGGTDADEGEWPWQVSLHALGQGHSCGASLISPNWLVSAAHCFIDYRGFRYSDPTQWTAFLGLHDQSQRSAPGVQERRLKRIISHPFFNDFVTFDYDIALLELEKPAEYSSMVRPISLPDASHVFPAGKAIWVTGWGHTQYGGTGALILQKGEIRVINQTTCENLLPQQITPRMMCVGFLSGGVDSCGGDSGGPLSSVEADGRIFQAGVVSWGDGCAQRNKPGVYTRLPLFRDWIKENTGV
B18: MTSP-1 protease domain I41S/ins97aV/C122S/N164D/Q192G/R235L (enzyme)
chain: VVGGTDADEGEWPWQVSLHALGQGHSCGASLISPNWLVSAAHCYIDDRGFRYSDPTQWTAFLGLHDQSQRSAPGVQERRLKRIISHPFFNDFVTFDYDIALLELEKPAEYSSMVRPISLPDASHVFPAGKAIWVTGWGHTQYGGTGALILQKGEIRVIDQTTCENLLPQQITPRMMCVGFLSGGVDSCGGDSGGPLSSVEADGRIFQAGVVSWGDGCAQRNKPGVYTRLPLFLDWIKENTGV
B19: MTSP-1 Q38H/I41S/D60bT/F60eS/Y60gW/D96K/F97G/ins97aV/T98P/F99L/C122S/Q175L/Q192D (enzyme)
chain: VVGGTDADEGEWPWQVSLHALGHGHSCGASLISPNWLVSAAHCYIDTRGSRWSDPTQWTAFLGLHDQSQRSAPGVQERRLKRIISHPFFNKGVPLDYDIALLELEKPAEYSSMVRPISLPDASHVFPAGKAIWVTGWGHTQYGGTGALILQKGEIRVINQTTCENLLPQLITPRMMCVGFLSGGVDSCDGDSGGPLSSVEADGRIFQAGVVSWGDGCAQRNKPGVYTRLPLFRDWIKENTGV
B20: MTSP-1 Q38H/I41S/D60bT/F60eS/Y60gW/D96K/F97G/ins97aV/T98P/F99L/C122S/G151H/Q192D (enzyme)
chain: VVGGTDADEGEWPWQVSLHALGHGHSCGASLISPNWLVSAAHCYIDTRGSRWSDPTQWTAFLGLHDQSQRSAPGVQERRLKRIISHPFFNKGVPLDYDIALLELEKPAEYSSMVRPISLPDASHVFPAGKAIWVTGWGHTQYGGTHALILQKGEIRVINQTTCENLLPQQITPRMMCVGFLSGGVDSCDGDSGGPLSSVEADGRIFQAGVVSWGDGCAQRNKPGVYTRLPLFRDWIKENTGV

For this assay, the target named is plasma purified human complement protein C3 (human) (UniProt P01024). The assay is described as follows: cell-based or functional assay.
Sequence of plasma purified human complement protein C3 (human) (P01024 23-667, chain 1 of 2): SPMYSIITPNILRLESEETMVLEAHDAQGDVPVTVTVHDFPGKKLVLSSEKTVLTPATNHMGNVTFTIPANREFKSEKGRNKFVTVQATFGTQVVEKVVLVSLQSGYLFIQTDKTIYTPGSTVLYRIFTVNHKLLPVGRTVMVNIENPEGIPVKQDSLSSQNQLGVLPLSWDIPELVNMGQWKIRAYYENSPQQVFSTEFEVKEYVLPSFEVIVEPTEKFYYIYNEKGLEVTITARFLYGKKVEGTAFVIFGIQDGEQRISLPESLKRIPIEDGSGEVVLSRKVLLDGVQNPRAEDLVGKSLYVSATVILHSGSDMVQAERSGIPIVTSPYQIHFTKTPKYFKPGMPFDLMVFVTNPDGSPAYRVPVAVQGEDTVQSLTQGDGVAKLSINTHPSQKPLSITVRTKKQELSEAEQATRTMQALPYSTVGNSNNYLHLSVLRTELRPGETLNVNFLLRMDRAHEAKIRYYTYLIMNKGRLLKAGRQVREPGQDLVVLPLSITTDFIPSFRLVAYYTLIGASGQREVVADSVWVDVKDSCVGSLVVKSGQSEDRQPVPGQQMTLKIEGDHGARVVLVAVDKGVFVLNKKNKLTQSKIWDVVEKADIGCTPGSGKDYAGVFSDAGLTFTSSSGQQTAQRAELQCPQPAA
Sequence of plasma purified human complement protein C3 (human) (P01024 672-1663, chain 2 of 2): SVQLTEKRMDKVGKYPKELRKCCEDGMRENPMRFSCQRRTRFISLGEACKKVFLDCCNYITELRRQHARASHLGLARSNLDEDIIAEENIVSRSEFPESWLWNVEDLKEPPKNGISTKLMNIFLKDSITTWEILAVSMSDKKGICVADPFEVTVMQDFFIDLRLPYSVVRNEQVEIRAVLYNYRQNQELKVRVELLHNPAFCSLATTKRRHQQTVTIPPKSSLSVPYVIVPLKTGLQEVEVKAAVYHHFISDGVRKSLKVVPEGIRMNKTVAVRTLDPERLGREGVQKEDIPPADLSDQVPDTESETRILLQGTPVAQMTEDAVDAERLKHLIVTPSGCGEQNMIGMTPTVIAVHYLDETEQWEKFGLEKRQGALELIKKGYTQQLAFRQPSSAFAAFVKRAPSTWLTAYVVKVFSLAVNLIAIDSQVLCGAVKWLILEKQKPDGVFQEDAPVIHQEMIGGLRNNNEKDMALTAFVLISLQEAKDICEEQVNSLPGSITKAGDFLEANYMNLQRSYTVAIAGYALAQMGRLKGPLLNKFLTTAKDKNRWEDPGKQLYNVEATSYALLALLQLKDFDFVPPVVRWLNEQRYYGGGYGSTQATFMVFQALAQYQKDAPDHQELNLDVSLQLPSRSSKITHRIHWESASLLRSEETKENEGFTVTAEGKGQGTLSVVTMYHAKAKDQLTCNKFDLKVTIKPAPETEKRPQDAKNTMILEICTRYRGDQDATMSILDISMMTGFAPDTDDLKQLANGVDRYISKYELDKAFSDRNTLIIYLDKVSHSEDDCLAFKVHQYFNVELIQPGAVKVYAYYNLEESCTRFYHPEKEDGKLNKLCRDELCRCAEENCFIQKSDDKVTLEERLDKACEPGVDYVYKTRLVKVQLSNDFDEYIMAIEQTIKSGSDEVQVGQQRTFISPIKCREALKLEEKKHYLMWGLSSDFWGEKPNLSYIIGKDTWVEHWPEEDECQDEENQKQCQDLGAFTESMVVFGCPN
Take B1: the EC50 hC3 cleavage is 17.5 nM.
Same read-out and setting: for B2 the value was 11.9 nM; for B3, 11.2 nM.
B4: the EC50 hC3 cleavage was 3.19 nM.
The same measure, in the same setting: for B5 the value was 17.6 nM; for B6, 4.18 nM.
For the molecule B7, the EC50 hC3 cleavage was found to be 18.4 nM.
Take B8: the EC50 hC3 cleavage was 19.1 nM.
The same measure, in the same setting: next, B9: 29.1 nM; B10: 8.1 nM; B11: 4.76 nM.
B12 had an EC50 hC3 cleavage of 195 nM.
On the same count and under the same terms, next, B13: 34.1 nM; B14: 32.3 nM.
B15 returned an EC50 hC3 cleavage of 46.4 nM.
In the case of B16, the EC50 hC3 cleavage was determined as 54.1 nM.
Turning to B17, the EC50 hC3 cleavage amounted to 5.24 nM.
Still for that read-out and setting: next, B18: 49.7 nM.
In turn, B19 came in with an EC50 of hC3 cleavage of 5.25 nM.
For B20, the EC50 of hC3 cleavage was determined as 19.9 nM.
